In the supplement of paper PMC9233669:
This sample holds only a part of the variants without activity.

Tests used:
biotinyl-Trp-oxazolone = test: self-aminoacylation, catalytic enhancement (BWO) (fold over background); higher = more active; k-Seq, kA / k0A0; sequences stand for … in GGGAAUGGAUCCACAUCUACGAAUUC…UUCACUGCAGACUUGACGAAGCUG
Summary of the method: (§1)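 Mutagenized RNA pools with a 21-nt variable region (0.43 μM) were reacted with each biotinyl-aminoacyl-oxazolone at 2–1250 μM for 90 minutes at room temperature, in 50 μL HEPES/NaCl/KCl/MgCl2/CaCl2 buffer containing 5% acetonitrile at pH 6.9–7.0. RNA captured on streptavidin was quantified by triplicate qPCR and by Illumina sequencing. The fraction reacted for each sequence was fit to a pseudo-first-order model with bootstrapping, and catalytic enhancement is the median kA divided by the uncatalyzed rate, taken as the low-activity peak of a bimodal Gaussian fit.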

biotinyl-Met-oxazolone = test: self-aminoacylation, catalytic enhancement (BMO) (fold over background); higher = more active; k-Seq, kA / k0A0; sequences stand for … in GGGAAUGGAUCCACAUCUACGAAUUC…UUCACUGCAGACUUGACGAAGCUG
Summary of the method: as §1

biotinyl-Ile-oxazolone = test: self-aminoacylation, catalytic enhancement (BIO) (fold over background); higher = more active; k-Seq, kA / k0A0; sequences stand for … in GGGAAUGGAUCCACAUCUACGAAUUC…UUCACUGCAGACUUGACGAAGCUG
Summary of the method: as §1

biotinyl-Leu-oxazolone = test: self-aminoacylation, catalytic enhancement (BLO) (fold over background); higher = more active; k-Seq, kA / k0A0; sequences stand for … in GGGAAUGGAUCCACAUCUACGAAUUC…UUCACUGCAGACUUGACGAAGCUG
Summary of the method: as §1

biotinyl-Phe-oxazolone = test: self-aminoacylation, catalytic enhancement (BFO) (fold over background); higher = more active; k-Seq, kA / k0A0; sequences stand for … in GGGAAUGGAUCCACAUCUACGAAUUC…UUCACUGCAGACUUGACGAAGCUG
Summary of the method: as §1

biotinyl-Val-oxazolone = test: self-aminoacylation, catalytic enhancement (BVO) (fold over background); higher = more active; k-Seq, kA / k0A0; sequences stand for … in GGGAAUGGAUCCACAUCUACGAAUUC…UUCACUGCAGACUUGACGAAGCUG
Summary of the method: as §1

Sequence: CUACUUCAAACAGUCGGACUG [Fam1A.1 aminoacylation ribozyme variant]
- self-aminoacylation (biotinyl-Trp-oxazolone): 0.682
- self-aminoacylation (biotinyl-Met-oxazolone): 0.697
- self-aminoacylation (biotinyl-Ile-oxazolone): 0.853
- self-aminoacylation (biotinyl-Leu-oxazolone): 0.564
- self-aminoacylation (biotinyl-Phe-oxazolone): 0.77
- self-aminoacylation (biotinyl-Val-oxazolone): 0.826

Sequence: CUACUUCAAACAGUCGUUCUG [Fam1A.1 aminoacylation ribozyme variant]
- self-aminoacylation (biotinyl-Trp-oxazolone): 0.472
- self-aminoacylation (biotinyl-Met-oxazolone): 0.589
- self-aminoacylation (biotinyl-Ile-oxazolone): 0.579
- self-aminoacylation (biotinyl-Leu-oxazolone): 0.475
- self-aminoacylation (biotinyl-Phe-oxazolone): 0.701
- self-aminoacylation (biotinyl-Val-oxazolone): 0.611

Sequence: CUACUUCAAACAGUCUGUCUG [Fam1A.1 aminoacylation ribozyme variant]
- self-aminoacylation (biotinyl-Trp-oxazolone): 0.337
- self-aminoacylation (biotinyl-Met-oxazolone): 0.515
- self-aminoacylation (biotinyl-Ile-oxazolone): 0.608
- self-aminoacylation (biotinyl-Leu-oxazolone): 0.568
- self-aminoacylation (biotinyl-Phe-oxazolone): 0.663
- self-aminoacylation (biotinyl-Val-oxazolone): 0.597

Sequence: CUACUUCAAACAGUUGGUCUG [Fam1A.1 aminoacylation ribozyme variant]
- self-aminoacylation (biotinyl-Trp-oxazolone): 0.595
- self-aminoacylation (biotinyl-Met-oxazolone): 0.538
- self-aminoacylation (biotinyl-Ile-oxazolone): 0.893
- self-aminoacylation (biotinyl-Leu-oxazolone): 0.79
- self-aminoacylation (biotinyl-Phe-oxazolone): 0.982
- self-aminoacylation (biotinyl-Val-oxazolone): 0.736

Sequence: CUACUUCAAACAUACGGUCUG [Fam1A.1 aminoacylation ribozyme variant]
- self-aminoacylation (biotinyl-Trp-oxazolone): 0.556
- self-aminoacylation (biotinyl-Met-oxazolone): 0.565
- self-aminoacylation (biotinyl-Ile-oxazolone): 0.776
- self-aminoacylation (biotinyl-Leu-oxazolone): 0.662
- self-aminoacylation (biotinyl-Phe-oxazolone): 0.561
- self-aminoacylation (biotinyl-Val-oxazolone): 0.763

Sequence: CUACUUCAAACAUUAGGUCUG [Fam1A.1 aminoacylation ribozyme variant]
- self-aminoacylation (biotinyl-Trp-oxazolone): 0.535
- self-aminoacylation (biotinyl-Met-oxazolone): 0.617
- self-aminoacylation (biotinyl-Ile-oxazolone): 0.813
- self-aminoacylation (biotinyl-Leu-oxazolone): 0.6
- self-aminoacylation (biotinyl-Phe-oxazolone): 0.696
- self-aminoacylation (biotinyl-Val-oxazolone): 0.747

Sequence: CUACUUCAAACAUUCGGUCAG [Fam1A.1 aminoacylation ribozyme variant]
- self-aminoacylation (biotinyl-Trp-oxazolone): 0.688
- self-aminoacylation (biotinyl-Met-oxazolone): 0.886
- self-aminoacylation (biotinyl-Ile-oxazolone): 0.901
- self-aminoacylation (biotinyl-Leu-oxazolone): 0.861
- self-aminoacylation (biotinyl-Phe-oxazolone): 0.674
- self-aminoacylation (biotinyl-Val-oxazolone): 0.992

Sequence: CUACUUCAAACAUUCGGUCUC [Fam1A.1 aminoacylation ribozyme variant]
- self-aminoacylation (biotinyl-Trp-oxazolone): 0.715
- self-aminoacylation (biotinyl-Met-oxazolone): 0.849
- self-aminoacylation (biotinyl-Ile-oxazolone): 0.986
- self-aminoacylation (biotinyl-Leu-oxazolone): 0.806
- self-aminoacylation (biotinyl-Phe-oxazolone): 0.796
- self-aminoacylation (biotinyl-Val-oxazolone): 0.975

Sequence: CUACUUCAAACCAACGGUCUG [Fam1A.1 aminoacylation ribozyme variant]
- self-aminoacylation (biotinyl-Trp-oxazolone): 0.556
- self-aminoacylation (biotinyl-Met-oxazolone): 0.68
- self-aminoacylation (biotinyl-Ile-oxazolone): 0.786
- self-aminoacylation (biotinyl-Leu-oxazolone): 0.587
- self-aminoacylation (biotinyl-Phe-oxazolone): 1.44
- self-aminoacylation (biotinyl-Val-oxazolone): 1.02

Sequence: CUACUUCAAACCAGCGGUCUG [Fam1A.1 aminoacylation ribozyme variant]
- self-aminoacylation (biotinyl-Trp-oxazolone): 0.677
- self-aminoacylation (biotinyl-Met-oxazolone): 0.722
- self-aminoacylation (biotinyl-Ile-oxazolone): 0.921
- self-aminoacylation (biotinyl-Leu-oxazolone): 1.09
- self-aminoacylation (biotinyl-Phe-oxazolone): 0.715
- self-aminoacylation (biotinyl-Val-oxazolone): 1.13

Sequence: CUACUUCAAACCAUCGGACUG [Fam1A.1 aminoacylation ribozyme variant]
- self-aminoacylation (biotinyl-Trp-oxazolone): 0.444
- self-aminoacylation (biotinyl-Met-oxazolone): 0.669
- self-aminoacylation (biotinyl-Ile-oxazolone): 0.8
- self-aminoacylation (biotinyl-Leu-oxazolone): 0.747
- self-aminoacylation (biotinyl-Phe-oxazolone): 0.578
- self-aminoacylation (biotinyl-Val-oxazolone): 0.873

Sequence: CUACUUCAAACCAUCGGUCCG [Fam1A.1 aminoacylation ribozyme variant]
- self-aminoacylation (biotinyl-Trp-oxazolone): 0.99
- self-aminoacylation (biotinyl-Met-oxazolone): 0.868
- self-aminoacylation (biotinyl-Ile-oxazolone): 0.761
- self-aminoacylation (biotinyl-Leu-oxazolone): 0.996
- self-aminoacylation (biotinyl-Phe-oxazolone): 0.607
- self-aminoacylation (biotinyl-Val-oxazolone): 0.922

Sequence: CUACUUCAAACGACCGGUCUG [Fam1A.1 aminoacylation ribozyme variant]
- self-aminoacylation (biotinyl-Trp-oxazolone): 0.229
- self-aminoacylation (biotinyl-Met-oxazolone): 0.698
- self-aminoacylation (biotinyl-Ile-oxazolone): 0.601
- self-aminoacylation (biotinyl-Leu-oxazolone): 0.621
- self-aminoacylation (biotinyl-Phe-oxazolone): 0.832
- self-aminoacylation (biotinyl-Val-oxazolone): 0.74

Sequence: CUACUUCAAACGAUCCGUCUG [Fam1A.1 aminoacylation ribozyme variant]
- self-aminoacylation (biotinyl-Trp-oxazolone): 0.755
- self-aminoacylation (biotinyl-Met-oxazolone): 0.958
- self-aminoacylation (biotinyl-Ile-oxazolone): 0.783
- self-aminoacylation (biotinyl-Leu-oxazolone): 0.787
- self-aminoacylation (biotinyl-Phe-oxazolone): 0.594
- self-aminoacylation (biotinyl-Val-oxazolone): 0.808

Sequence: CUACUUCAAACGAUCGCUCUG [Fam1A.1 aminoacylation ribozyme variant]
- self-aminoacylation (biotinyl-Trp-oxazolone): 0.678
- self-aminoacylation (biotinyl-Met-oxazolone): 0.689
- self-aminoacylation (biotinyl-Ile-oxazolone): 0.842
- self-aminoacylation (biotinyl-Leu-oxazolone): 0.654
- self-aminoacylation (biotinyl-Phe-oxazolone): 1.11
- self-aminoacylation (biotinyl-Val-oxazolone): 0.838

Sequence: CUACUUCAAACGAUCGGGCUG [Fam1A.1 aminoacylation ribozyme variant]
- self-aminoacylation (biotinyl-Trp-oxazolone): 1.28
- self-aminoacylation (biotinyl-Met-oxazolone): 1.09
- self-aminoacylation (biotinyl-Ile-oxazolone): 1.49
- self-aminoacylation (biotinyl-Leu-oxazolone): 1.23
- self-aminoacylation (biotinyl-Phe-oxazolone): 1.11
- self-aminoacylation (biotinyl-Val-oxazolone): 1.45

Sequence: CUACUUCAAACGAUCGGUCUA [Fam1A.1 aminoacylation ribozyme variant]
- self-aminoacylation (biotinyl-Trp-oxazolone): 0.594
- self-aminoacylation (biotinyl-Met-oxazolone): 0.744
- self-aminoacylation (biotinyl-Ile-oxazolone): 0.757
- self-aminoacylation (biotinyl-Leu-oxazolone): 0.615
- self-aminoacylation (biotinyl-Phe-oxazolone): 0.678
- self-aminoacylation (biotinyl-Val-oxazolone): 0.731

Sequence: CUACUUCAAACGAUGGGUCUG [Fam1A.1 aminoacylation ribozyme variant]
- self-aminoacylation (biotinyl-Trp-oxazolone): 0.62
- self-aminoacylation (biotinyl-Met-oxazolone): 0.58
- self-aminoacylation (biotinyl-Ile-oxazolone): 0.746
- self-aminoacylation (biotinyl-Leu-oxazolone): 0.764
- self-aminoacylation (biotinyl-Phe-oxazolone): 0.674
- self-aminoacylation (biotinyl-Val-oxazolone): 1

Sequence: CUACUUCAAACUAGCGGUCUG [Fam1A.1 aminoacylation ribozyme variant]
- self-aminoacylation (biotinyl-Trp-oxazolone): 0.732
- self-aminoacylation (biotinyl-Met-oxazolone): 0.547
- self-aminoacylation (biotinyl-Ile-oxazolone): 0.932
- self-aminoacylation (biotinyl-Leu-oxazolone): 0.79
- self-aminoacylation (biotinyl-Phe-oxazolone): 1.25
- self-aminoacylation (biotinyl-Val-oxazolone): 0.803

Sequence: CUACUUCAAAGAACCGGUCUG [Fam1A.1 aminoacylation ribozyme variant]
- self-aminoacylation (biotinyl-Trp-oxazolone): 0.734
- self-aminoacylation (biotinyl-Met-oxazolone): 0.715
- self-aminoacylation (biotinyl-Ile-oxazolone): 0.994
- self-aminoacylation (biotinyl-Leu-oxazolone): 0.847
- self-aminoacylation (biotinyl-Phe-oxazolone): 0.687
- self-aminoacylation (biotinyl-Val-oxazolone): 0.815

Sequence: CUACUUCAAAGAAGCGGUCUG [Fam1A.1 aminoacylation ribozyme variant]
- self-aminoacylation (biotinyl-Trp-oxazolone): 0.832
- self-aminoacylation (biotinyl-Met-oxazolone): 1.01
- self-aminoacylation (biotinyl-Ile-oxazolone): 1.09
- self-aminoacylation (biotinyl-Leu-oxazolone): 0.82
- self-aminoacylation (biotinyl-Phe-oxazolone): 1.17
- self-aminoacylation (biotinyl-Val-oxazolone): 0.988

Sequence: CUACUUCAAAGAAUCCGUCUG [Fam1A.1 aminoacylation ribozyme variant]
- self-aminoacylation (biotinyl-Trp-oxazolone): 0.738
- self-aminoacylation (biotinyl-Met-oxazolone): 0.942
- self-aminoacylation (biotinyl-Ile-oxazolone): 1.06
- self-aminoacylation (biotinyl-Leu-oxazolone): 1.07
- self-aminoacylation (biotinyl-Phe-oxazolone): 0.744
- self-aminoacylation (biotinyl-Val-oxazolone): 0.915

Sequence: CUACUUCAAAGAAUCGGACUG [Fam1A.1 aminoacylation ribozyme variant]
- self-aminoacylation (biotinyl-Trp-oxazolone): 0.932
- self-aminoacylation (biotinyl-Met-oxazolone): 0.91
- self-aminoacylation (biotinyl-Ile-oxazolone): 0.992
- self-aminoacylation (biotinyl-Leu-oxazolone): 0.818
- self-aminoacylation (biotinyl-Phe-oxazolone): 1.29
- self-aminoacylation (biotinyl-Val-oxazolone): 0.808
